This is an account of results in article PMC4219644 (Journal of molecular biology, 2014).

B1: human ribonuclease inhibitor (natural protein, human (H. sapiens))
chain: MSLDIQSLDIQCEELSDARWAELLPLLQQCQVVRLDDCGLTEARCKDISSALRVNPALAELNLRSNELGDVGVHCVLQGLQTPSCKIQKLSLQNCCLTGAGCGVLSSTLRTLPTLQELHLSDNLLGDAGLQLLCEGLLDPQCRLEKLQLEYCSLSAASCEPLASVLRAKPDFKELTVSNNDINEAGVRVLCQGLKDSPCQLEALKLESCGVTSDNCRDLCGIVASKASLRELALGSNKLGDVGMAELCPGLLHPSSRLRTLWIWECGITAKGCGDLCRVLRAKESLKELSLAGNELGDEGARLLCETLLEPGCQLESLWVKSCSFTAACCSHFSSVLAQNRFLLELQISNNRLEDAGVRELCQGLGQPGSVLRVLWLADCDVSDSSCSSLAATLLANHSLRELDLSNNCLGDAGILQLVESVRQPGCLLEQLVLYDIYWSEEMEDRLQALEKDKPSLRVIS
B2: P19C human RNase 1, labeled with diethylfluorescein (DEFIA) (enzyme, UniProt P07998 29-156, looked up)
chain: KESRAKKFQRQHMDSDSSCSSSSTYCNQMMRRRNMTQGRCKPVNTFVHEPLVDVQNVCFQEKVTCKNGQGNCYKSNSSMHITDCRLTNGSRYPNCAYRTSPKERHIIVACEGSPYVPVHFDASVEDST
modifications: diethylfluorescein (DEFIA) on the introduced cysteine 19
B3: A19C bovine RNase 1, labeled with diethylfluorescein (DEFIA) (enzyme, UniProt P61823 27-150, looked up)
chain: KETAAAKFERQHMDSSTSCASSSNYCNQMMKSRNLTKDRCKPVNTFVHESLADVQAVCSQKNVACKNGQTNCYQSYSTMSITDCRETGSSKYPNCAYKTTQANKHIIVACEGNPYVPVHFDASV
modifications: diethylfluorescein (DEFIA) on the introduced cysteine 19
B4: mouse ribonuclease inhibitor (natural protein, mouse (M. musculus))
chain: MSLDIQCEQLSDARWTELLPLIQQYEVVRLDDCGLTEVRCKDISSAVQANPALTELSLRTNELGDGGVGLVLQGLQNPTCKIQKLSLQNCGLTEAGCGILPGMLRSLSTLRELHLNDNPMGDAGLKLLCEGLQDPQCRLEKLQLEYCNLTATSCEPLASVLRVKADFKELVLSNNDLHEPGVRILCQGLKDSACQLESLKLENCGITAANCKDLCDVVASKASLQELDLSSNKLGNAGIAALCPGLLLPSCKLRTLWLWECDITAEGCKDLCRVLRAKQSLKELSLASNELKDEGARLLCESLLEPGCQLESLWIKTCSLTAASCPYFCSVLTKSRSLLELQMSSNPLGDEGVQELCKALSQPDTVLRELWLGDCDVTNSGCSSLANVLLANRSLRELDLSNNCMGGPGVLQLLESLKQPSCTLQQLVLYDIYWTNEVEEQLRALEEERPSLRIIS
B5: bovine ribonuclease inhibitor (natural protein, bovine (B. taurus))
chain: MKLDIQCEQLSDARWTELLPLIQQYEVVRLDDCGLTEVRCKDIGSALQANASLTELSLRTNELGDGGVLLVLQGLQSPTCKIQKLSLQNCCLTEAGCGVLPGVLRSLPTLRELHLSDNPLGDAGLRLLCEGLLDPRCRLEKLQLEYCSLTAASCEPLAAVLRATRDLKELVVSNNDIGEAGVQALCRGLAESACQLETLKLENCGLTAANCKDLCGIVASQASLKDLDLGSNRLGDAGLAELCPGLLSPSSQLRTLWLWECDLTVSGCRELCRVLQAKEALKELSLAGNSLGDEGAQLLCESLLQPGCQLESLWVKSCGFTAACCQHFSSMLTQNKHLLELQLSSNPLGDAGVHVLCQALGQPGTVLRVLWVGDCELTNSSCGGLASLLLASPSLRELDLSNNGLGDPGVLQLLGSLEQPACSLEQLVLYDIYWTEAVDERLRAVEESKPGLRIIS
B6: S19C mouse RNase 1, labeled with diethylfluorescein (DEFIA) (enzyme, mouse (M. musculus), UniProt P00683 26-149, looked up)
chain: RESAAQKFQRQHMDPDGSCINSPTYCNQMMKRRDMTNGSCKPVNTFVHEPLADVQAVCSQENVTCKNRKSNCYKSSSALHITDCHLKGNSKYPNCDYKTTQYQKHIIVACEGNPYVPVHFDATV
modifications: diethylfluorescein (DEFIA) on the introduced cysteine 19

Positions count from the first letter of the chain named. In names and notes the source's numbering stands.

Experiment [1] concerns the target anole RNase 1 (anole lizard (Anolis carolinensis)).
Experiment [2] addresses chicken RNase A-1 (chicken (G. gallus)).
In another experiment the target is T1, human RNase 1 (human, UniProt P07998 29-156).
T1 sequence: B2 chain with C19P

Experiment [3] deals with B4. In words: fluorescence dissociation-rate assay.
The target in experiment [4] is B1. In words: fluorescence dissociation-rate assay.
Another experiment deals with T2, mouse RNase 1 (mouse (M. musculus), UniProt P00683 26-149).
T2 sequence (looked up): B6 chain with C19S

In the next experiment the target is T3, bovine RNase A (bovine, UniProt P61823 27-150).
T3 sequence (looked up): B3 chain with C19A

The stoichiometry N is a count of units in the complex or per binding partner. For “anole ribonuclease inhibitor (natural protein)”, in experiment [1], the stoichiometry N came out at 1.

Take “chicken ribonuclease inhibitor (natural protein)”: the stoichiometry N in experiment [2] was 1. On to B1, for which the “stoichiometry N” value with human RNase 1 was 1. Turning to B2, the binding result in experiment [3] was “binds”. For B3, the binding result in experiment [3] and in experiment [4] was “binds” each time. For the molecule B4, in the experiment with mouse RNase 1, the “stoichiometry N” value amounted to 1. Take B5: the “stoichiometry N” value with bovine RNase A amounted to 1. For the molecule B6, in experiment [4], the binding result was “binds”.
